We go through eight compounds from patent publication US8404647B2, “Peptidylarginine deiminase (PAD) inhibitors” (Chiralix B.V., priority 2008, dated 2013).

In one assay the target is creatine kinase (CK). In words: Creatine kinase activity (CK NAC activated liquiUV test). Particulars: enzyme treated with inhibitor 10 min at room temperature. In kind it is biochemical, mammalian.
Assay [1] deals with collagen antibody induced arthritis (CAIA). Briefly: Collagen antibody induced arthritis (CAIA) mouse model. Format: in vivo. As to conditions: 0.5 mg daily i.v. day 3 to 11 except day 9, male DBA/J1 mice, FIG. 6. As for the experimental part:
FIG. 6. The collagen antibody induced arthritis (CAIA) model (MQR; 18.101) was used to test the therapeutic effect of the PAD-inhibitor CXP5.7-011 (SEQ ID NO:143). At day 0 mice were injected i.p. with 2.8 mg anti-collagen antibodies. LPS (25 μg/mouse) was administered on day 3 via i.p. injection. The inhibitor (0.5 mg CXP5.7-011 in 200 μl PBS containing 20 mM sodium phosphate), or 200 μl PBS containing 20 mM sodium phosphate as the placebo, was administered daily from day 3 until day 11 (with the exception of day 9). Animals were scored daily until day 14 for degree of inflammation. Mean arthritis score per experimental group (5 mice) is indicated at each time point.
One of the peptide based human PAD 2 and PAD 4 inhibitors was tested in the commercially available collagen antibody induced arthritis (CAIA) mouse model (Modiquest research B.V., product number 18.101). Experimental procedures were performed according to manufacturers specifications to induce arthritis in mice (World Wide Web (www) modiquestresearch.n1/shop/files/18.101-50MG%20 —2007.08.22.pdf) In short, on day 0 male DBA/J1 mice (5mice/group) of the age of 8 weeks have been injected i.p. with a mix of 8 anti-collagen antibodies (2.8 mg/mouse). […]
Animals where scored daily for degree of inflammation in their paws. […]

Assay [2] has as its target T1, PAD2 (Homo sapiens, UniProt Q9Y2J8). Briefly: ABAP antibody based PAD enzyme activity assay, PAD2. Format: biochemical. As to conditions: Table 19, first 8 pentapeptide inhibitors. On the procedure:
These 8 pentapeptides inhibitors are represented by SEQ ID NO: 12-19. (O(FA) stands for ornithine fluoroamidine, O(CA) stands for ornithine chloroamidine). The IC50's for human PAD2 and 4 as well as for mouse PAD2 and 4 were determined in an assay developed by Zendman and others {Zendman et al. 2007}. Of this series the inhibitor T-D-O(FA)-G-S(CXP5-101) (SEQ ID NO: 12) was the best PAD2 and PAD4 inhibitor. Subsequently, several modifications were brought to this lead compound.
To determine inhibition of PAD2 and PAD4 activity, the commercially available Antibody based PAD enzyme activity assay from ModiQuest Research (cat no: MQ17.101) has been used according to manufacturers specifications.
PAD enzymes (amounts that give maximum deimination) were mixed with PAD inhibitors at the following concentrations (4.9, 9.8, 19.5, 39, 78.1, 156, 313, 625, 1250, 2500 and 5000 μM) and pre-incubated for 30 minutes at 37° C. After pre-incubation, mixtures of PAD enzymes and inhibitors were added to the wells for an additional incubation of 75 minutes. After thoroughly washing the 96-well plates with PBS, the conversion of the arginines into citrullines of the coating was measured with the use of a propriety anti-citrulline-antibody, followed by a secondary HRP-labelled antibody recognizing the anti-citrulline antibody. Incubation with both antibodies was performed for 1 h at 37° C. […]

Assay [3] concerns the target T1, PAD2. Briefly: Citrullination of synthetic peptides by recombinant human PAD2 (MALDI-TOF and ESI-Q-TOF mass spectrometry). Format: biochemical. Also noted: His6; made in house. On the procedure:
(§1) Subsequently, the citrullinated proteins were isolated from the cell lysates by immunoaffinity purification using the RA3 single chain antibody fragment (scFv), which is specific for citrullinated epitopes {Raats et al., 2003}. After digestion of the purified proteins with trypsin, the amino acid sequence of the resulting peptides was determined by tandem mass spectrometry. Based upon the mass spectrometry data the peptides containing citrullinated residues were identified. In total 90 and 57 citrullinated peptides were identified in proteins derived from the COS-1 cells expressing PAD2 and PAD4, respectively, and 107 and 38 citrullinated peptides were obtained from HEK-293 cell material for PAD2 and PAD4, respectively. The frequency of amino acids at each of the positions between 5 residues N-terminal and 5 residues C-terminal from a citrullinated residue was derived from the combined sequences of these sites and is illustrated in Table 1. […] The efficiency by which these peptides were citrullinated by the human PAD2 and PAD4 enzymes was investigated by incubating them with the bacterially expressed, His6-tagged and IMAC purified, recombinant enzymes, followed by analysis of the products by both MALDI-TOF and ESI-Q-TOF mass spectrometry.

In assay [4] the target is T1, PAD2. In words: Conversion (R to Cit) of substrate peptides by PAD2, mass spectrometry. Format: biochemical. The method in brief:
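Candidate peptides incubated with human PAD2 for several hours at 37° C, quenched with acetic acid and analysed by Q-TOF MS against untreated peptide. Arg-to-Cit conversion (ΔM=0.98 Da) computed on 2+ and 3+ ions, averaged weighted by relative peak height.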

The target in assay [5] is T2, PAD4 (Homo sapiens, UniProt Q9UM07). Briefly: Conversion (R to Cit) of substrate peptides by PAD4, mass spectrometry. In kind it is biochemical.
Assay [6] addresses T2, PAD4. In words: Citrullination of synthetic peptides by recombinant human PAD4 (MALDI-TOF and ESI-Q-TOF mass spectrometry). Format: biochemical. Set-up: His6; made in house. As for the experimental part:
as §1

For a further assay, the target named is His-tagged PAD4 (Homo sapiens, UniProt Q9UM07). In words: Binding of biotinylated inhibitor peptide to His-tagged PAD4 (SDS-PAGE and blot). As to conditions: 3 h at 37° C.; binding resistant to boiling in the presence of SDS. As for the experimental part:
In the following experiments mixtures of various quantities of biotinylated inhibitor peptide (biotin-Ahx-D-S-K-K-H-D-O(FA)-D-F-L-Y-S-D-amide (SEQ ID NO: 112), O(FA)=ornithine fluoroamidine, Ahx=6-aminohexanoic acid) and a fixed amount of His-tagged PAD4 were analysed. In short, 10 μl PAD4 solution was mixed with 10 μl inhibitor solution and incubated for 3 h at 37° C. After the addition of loading buffer containing SDS, samples were either boiled for 5 minutes or kept at room temperature. Samples were loaded on a 10% polyacrylamide gel and subjected to electrophoresis (about 1 h). Proteins were transferred to a PVDF membrane and developed with either streptavidin-alkaline phosphatase conjugate (FIG. 2) or with mouse-anti-His antibody followed by goat-anti-mouse alkaline phosphatase conjugate (FIG. 3), followed by visualisation using NBT/BCIP. In Table 18 the samples are specified.
In FIG. 2 the biotin group of the inhibitor is visualised. Only lanes where the biotinylated inhibitor is present show a coloured band. The position of the bands is around the expected molecular weight of PAD4 (77 kDa). This indicates binding of the biotinylated peptide to PAD4. This binding is not broken by boiling of the sample in the presence of SDS. In FIG. 3 the His-tag of PAD4 is visualised. Only lanes where PAD4 is present show a coloured band. […]

Assay [7] deals with PAD2. Particulars: low doses, in vitro; cited from earlier work.
The next assay deals with T3, caspase-3 (Homo sapiens, UniProt P42574).
T3 sequence (P42574 29-175 limits assumed): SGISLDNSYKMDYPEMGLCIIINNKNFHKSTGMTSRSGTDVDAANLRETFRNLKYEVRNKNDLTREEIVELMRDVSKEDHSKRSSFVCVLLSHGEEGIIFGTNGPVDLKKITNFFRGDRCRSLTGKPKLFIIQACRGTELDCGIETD
T3 sequence (P42574 176-277 limits assumed): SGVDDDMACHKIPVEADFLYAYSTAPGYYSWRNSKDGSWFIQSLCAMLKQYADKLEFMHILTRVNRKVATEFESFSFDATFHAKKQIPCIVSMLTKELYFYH
In words: Caspase-3 activity assay (Ac-DEVDpNA cleavage). Format: biochemical, mammalian. Particulars: enzyme treated with inhibitor 10 min at room temperature. On the procedure: Upon incubation of purified recombinant caspase-3 with its commercially available substrate: acetyl-Asp-Glu-Val-Asp-p-nitroanilide (Ac-DEVDpNA) SEQ ID NO: 145 in CFS buffer (220 mM mannitol, 68 mM sucrose, 2mM NaCl, 2.5 mM KH2PO4, 10 mM HEPES, pH 7.4 plus a cocktail of protease inhibitors), the substrate is cleaved, pNA is released and its absorbance at 405 nm can be monitored.

The target of another assay is transglutaminase (TG) (UniProt P08587). Briefly: biochemical.
A further assay addresses papain (Carica papaya, UniProt P00784). Briefly: biochemical.
Setting [8] is: share of peptide still unconverted (Arg).
The mark [9] stands for this setting: share of peptide with one citrulline.

Numbered stars: 1 amine (or outer) side, 2 acyl side, 3 side chain; on linkers, the order of the positions; unused ones are H or OH. Square brackets hold non-standard residues; d marks the D form. Peptide text beside a SMILES is read from it. * marks the point of attachment. CA = chloroamidine (on ornithine side chain, O(CA) = ornithine chloroamidine), N=C(CCl)*; Orn(fluoroacetimidoyl) = N=C(CF)NCCC[C@H](N)C(=O)O; X1 = N=C(CCl)NCCC[C@H](N[*:1])C(=O)[*:2]; Orn = NCCC[C@H](N)C(=O)O; Moc = COC(=O)*

T2 sequence (Q9UM07 whole entry): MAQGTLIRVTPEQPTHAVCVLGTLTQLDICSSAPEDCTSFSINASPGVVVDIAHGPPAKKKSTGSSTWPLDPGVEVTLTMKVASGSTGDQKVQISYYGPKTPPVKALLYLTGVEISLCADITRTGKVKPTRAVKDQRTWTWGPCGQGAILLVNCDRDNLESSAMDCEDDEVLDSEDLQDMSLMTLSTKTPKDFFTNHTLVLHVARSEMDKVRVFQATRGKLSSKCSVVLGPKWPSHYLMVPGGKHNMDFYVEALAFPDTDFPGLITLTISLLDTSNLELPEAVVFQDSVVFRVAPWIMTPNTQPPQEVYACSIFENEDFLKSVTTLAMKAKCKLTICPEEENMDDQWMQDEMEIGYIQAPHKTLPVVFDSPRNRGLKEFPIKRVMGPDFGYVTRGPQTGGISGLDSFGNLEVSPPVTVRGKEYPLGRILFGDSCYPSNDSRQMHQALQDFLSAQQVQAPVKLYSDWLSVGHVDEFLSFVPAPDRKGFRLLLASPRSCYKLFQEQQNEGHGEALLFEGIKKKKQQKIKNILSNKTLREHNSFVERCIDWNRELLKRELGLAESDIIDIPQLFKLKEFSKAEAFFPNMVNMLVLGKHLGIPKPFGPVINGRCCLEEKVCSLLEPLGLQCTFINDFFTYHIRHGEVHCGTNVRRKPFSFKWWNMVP
T1 sequence (Q9Y2J8 whole entry): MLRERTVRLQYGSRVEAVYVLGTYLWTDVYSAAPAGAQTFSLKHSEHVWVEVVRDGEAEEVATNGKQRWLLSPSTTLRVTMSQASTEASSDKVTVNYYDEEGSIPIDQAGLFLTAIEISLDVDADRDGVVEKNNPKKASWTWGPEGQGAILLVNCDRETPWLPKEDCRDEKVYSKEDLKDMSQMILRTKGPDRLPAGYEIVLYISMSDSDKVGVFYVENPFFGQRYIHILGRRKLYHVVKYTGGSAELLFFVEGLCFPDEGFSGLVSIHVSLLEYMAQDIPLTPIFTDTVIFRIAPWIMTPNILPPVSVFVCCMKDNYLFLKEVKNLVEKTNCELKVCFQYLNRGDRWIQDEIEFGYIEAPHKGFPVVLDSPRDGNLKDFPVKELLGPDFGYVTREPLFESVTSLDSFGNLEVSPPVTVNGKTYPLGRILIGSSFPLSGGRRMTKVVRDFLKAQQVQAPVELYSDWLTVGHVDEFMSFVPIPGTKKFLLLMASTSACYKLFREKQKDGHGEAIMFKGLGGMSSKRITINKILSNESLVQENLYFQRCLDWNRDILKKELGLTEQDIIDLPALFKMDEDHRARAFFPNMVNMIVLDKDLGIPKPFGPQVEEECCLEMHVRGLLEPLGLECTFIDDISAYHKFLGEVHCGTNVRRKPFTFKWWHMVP
Sequence of transglutaminase (TG) (P08587 whole entry): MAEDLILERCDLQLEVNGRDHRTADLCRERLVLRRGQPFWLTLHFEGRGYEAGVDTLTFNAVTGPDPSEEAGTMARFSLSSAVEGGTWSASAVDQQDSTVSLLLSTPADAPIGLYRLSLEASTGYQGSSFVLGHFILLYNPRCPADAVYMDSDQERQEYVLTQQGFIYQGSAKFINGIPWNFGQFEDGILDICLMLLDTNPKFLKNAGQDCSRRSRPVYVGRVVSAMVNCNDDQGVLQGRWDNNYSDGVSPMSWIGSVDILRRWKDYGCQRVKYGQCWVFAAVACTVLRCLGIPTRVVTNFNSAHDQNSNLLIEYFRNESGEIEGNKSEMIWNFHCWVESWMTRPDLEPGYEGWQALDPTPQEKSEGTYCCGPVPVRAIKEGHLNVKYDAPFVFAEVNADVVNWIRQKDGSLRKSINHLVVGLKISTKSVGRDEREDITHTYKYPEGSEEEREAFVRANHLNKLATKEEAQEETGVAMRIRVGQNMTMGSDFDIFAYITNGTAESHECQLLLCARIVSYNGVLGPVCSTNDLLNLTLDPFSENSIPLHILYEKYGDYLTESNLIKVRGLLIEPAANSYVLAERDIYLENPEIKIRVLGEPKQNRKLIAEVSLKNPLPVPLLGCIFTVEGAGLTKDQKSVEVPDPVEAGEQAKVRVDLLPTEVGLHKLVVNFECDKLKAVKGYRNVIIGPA
Sequence of papain (P00784 134-345): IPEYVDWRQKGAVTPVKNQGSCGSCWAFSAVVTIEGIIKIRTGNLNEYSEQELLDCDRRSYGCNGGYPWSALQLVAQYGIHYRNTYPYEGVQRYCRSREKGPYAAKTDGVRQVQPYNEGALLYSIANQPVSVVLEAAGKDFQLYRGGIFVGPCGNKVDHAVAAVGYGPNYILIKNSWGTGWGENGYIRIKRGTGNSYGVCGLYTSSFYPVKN
Sequence of His-tagged PAD4 (Q9UM07 whole entry): as the sequence (Q9UM07 whole entry) above
Protocol for creatine kinase (CK): (§2) The activities of CK and TG (both purchased from Sigma-Aldrich (Schnelldorf, Germany) were assayed with the help of the commercial kits CK NAC activated liquiUV test form
(§3) Human GmbH (Wiesbaden, Germany) and the Enzymatic Assay of [sequence] from Sigma-Aldrich (Schnelldorf, Germany) according to the manufacturers' instructions.
Protocol for papain: The activity of papain was assessed using a similar experimental setting, based on its cleavage of pGlu-Phe-Leu-pNA in reaction buffer (25 mM Tris-HCL, pH 7.6; 150 mM NaCl).
Protocol for transglutaminase (TG): as §2, §3

Broadly, the IC50 is the midpoint of a concentration-inhibition curve. A lower IC50 goes with greater potency. Regarding `CC(=O)NCC(=O)N[C@@H](CC(=O)O)C(=O)N[C@@H](CCCNC(=N)CCl)C(=O)NCC(=O)N[C@@H](CO)C(=O)O` [CXP5.2-078, Ac-G-D-O(CA)-G-S] (Ac-GD[X1]GS-OH; N-terminus and C-terminus assumed), the IC50 on creatine kinase (CK) amounted to 780 µM.
Regarding “Ac-Y-D-O(CA)-G-S-amide (Ac-YD[Orn](CA)GS-NH2; SMILES CC(=O)N[C@@H](Cc1ccc(O)cc1)C(=O)N[C@@H](CC(=O)O)C(=O)N[C@@H](CCCNC(=N)CCl)C(=O)NCC(=O)N[C@@H](CO)C(N)=O) [CXP5.7-011]”, the “degree of inflammation (mean arthritis score)” value in [1] is recorded as “clearly demonstrates the inhibitory potential of the inhibitor in this model”.
Regarding `N=C(CF)NCCC[C@H](NC(=O)[C@H](CC(=O)O)NC(=O)CN)C(=O)N[C@@H](CO)C(=O)NCC(=O)O` [SEQ ID NO: 13, G-D-O(FA)-S-G] (H-GD[Orn(fluoroacetimidoyl)]SG-OH), the IC50 against PAD2 [2] is 17 µM. That is a double-digit micromolar value.
As to `COC(=O)N[C@H](C(=O)N[C@@H](CC(=O)O)C(=O)N[C@@H](CCCNC(=N)CF)C(=O)NCC(=O)N[C@@H](CO)C(=O)OC)[C@@H](C)O` [CXP5-101, MeO2C-T-D-O(FA)-G-S-methylester] (Moc-TD[Orn(fluoroacetimidoyl)]GS-OMe), the IC50 against creatine kinase (CK) was 780 µM.
Turning to “D-S-Q-F-A-F-R-G-A-S-A-S-D (DSQFAFRGASASD) [Peptide 0308-29, reference compound]”, the “PAD2 conversion: Arg” value in the assay with PAD2 [3] (setting [8]) is on record as 68%. For the same compound, the “PAD2 conversion: 1 Cit” value with PAD2 [3] (setting [9]) was determined as 32%. Also, the “Conversion (%)” value is on record as 45 (=L1) % with PAD2 [4] (Table 9, PAD2) and 30% (=L1) with PAD4 [5] (Table 4, 13-mer peptides, PAD4). Also, the “Conversion by PAD2 (%)” value in the assay with PAD2 [4] (Table 10) was <20(=L1) %. In addition, the “conversion of L1 analogs by PAD2” value with PAD2 [4] (relative to conversion of L1 (L1 = 100), single substitution at positions -4 to 4) came to 100%. For the same compound, the “Conversion by PAD4 (%)” value in the assay with PAD4 [5] (Table 10) was <20(=L1) %. Besides, in the assay with PAD4 [5] (relative to conversion of L1 under standard conditions (L1 = 100), single substitution at positions -4 to 4), the “conversion of L1 analogs by PAD4” value turned out to be 100%. For the same compound, the “PAD4 conversion: Arg” value in the assay with PAD4 [6] (setting [8]) was found to be 98%. Besides, the “PAD4 conversion: 1 Cit” value in the assay with PAD4 [6] (setting [9]) turned out to be 2%.
In the case of “biotin-Ahx-D-S-K-K-H-D-O(FA)-D-F-L-Y-S-D-amide [biotinylated inhibitory peptide]”, on His-tagged PAD4, the “mode of binding of the inhibitor to PAD4” value is listed as “covalent binding of the inhibitor to PAD4”.
For `CC(=O)O[C@H]1C(=O)[C@@]2(C)[C@H]([C@H](OC(=O)c3ccccc3)[C@]3(O)C[C@H](OC(=O)[C@H](O)[C@@H](NC(=O)c4ccccc4)c4ccccc4)C(C)=C1C3(C)C)[C@]1(OC(C)=O)CO[C@@H]1C[C@@H]2O` [paclitaxel], in the assay on PAD2 [7], the “inhibition of citrullination of MBP by PAD2” value is on record as “can inhibit citrullination of MBP by PAD2 in vitro”.
Take `CC(=O)N[C@@H](CCCCN)C(=O)N[C@@H](Cc1c[nH]c2ccccc12)C(=O)N[C@@H](Cc1c[nH]cn1)C(=O)N[C@@H](CCCNC(=N)CF)C(=O)N[C@@H](CC(=O)O)C(=O)N[C@@H](Cc1ccccc1)C(=O)N[C@@H](Cc1ccccc1)C(N)=O` [Peptide 0748-09FA, Ac-K-W-H-O(FA)-D-F-F-amide] (Ac-KWH[Orn(fluoroacetimidoyl)]DFF-NH2): the half-inhibitory concentration (IC50) is more than 1000 µM against caspase-3, more than 1000 µM against transglutaminase (TG) and more than 2000 µM on papain.
